The assay concerns the target His-FGF2, LMW FGF2 (residues 135-288, C211S/C229S) (human, UniProt P09038 135-288, C211S | C229S). Kind of assay: SPR. For orientation: SPR reads the build-up and loss of mass on a sensor chip optically.

The source of these data is PMC7293033 (2020).

By koff is commonly meant a measure of how fast the partners let go of each other.

Sequence of His-FGF2, LMW FGF2 (residues 135-288, C211S/C229S) (P09038 135-288 C211S/C229S): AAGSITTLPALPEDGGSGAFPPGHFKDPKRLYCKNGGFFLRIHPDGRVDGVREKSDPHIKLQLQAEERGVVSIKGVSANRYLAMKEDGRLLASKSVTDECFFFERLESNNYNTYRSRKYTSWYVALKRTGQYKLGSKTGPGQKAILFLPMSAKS

B1: His-API5 (apoptosis inhibitor 5, residues 1-504, isoform 2), wild type (natural protein)
chain: MPTVEELYRNYGILADATEQVGQHKDAYQVILDGVKGGTKEKRLAAQFIPKFFKHFPELADSAINAQLDLCEDEDVSIRRQAIKELPQFATGENLPRVADILTQLLQTDDSAEFNLVNNALLSIFKMDAKGTLGGLFSQILQGEDIVRERAIKFLSTKLKTLPDEVLTKEVEELILTESKKVLEDVTGEEFVLFMKILSGLKSLQTVSGRQQLVELVAEQADLEQTFNPSDPDCVDRLLQCTRQAVPLFSKNVHSTRFVTYFCEQVLPNLGTLTTPVEGLDIQLEVLKLLAEMSSFCGDMEKLETNLRKLFDKLLEYMPLPPEEAENGENAGNEEPKLQFSYVECLLYSFHQLGRKLPDFLTAKLNAEKLKDFKIRLQYFARGLQVYIRQLRLALQGKTGEALKTEENKIKVVALKITNNINVLIKDLFHIPPSYKSTVTLSWKPVQKVEIGQKRASEDTTSGSPPKKSSAGPKRDARQIYNPPSGKYSSNLGNFNYERSLQGK
Regarding B1, the koff was 0.00474 s⁻¹.
